This assay has as its target SARS-CoV-2 K417N+E484K+N501Y+D614G mutant pseudovirus spike (spikeΔ19) (SARS-CoV-2) (UniProt P0DTC2). Nature of the assay: cell-based or functional assay.

As to S309 dimer (antibody), the NT50 (B.1.351) (nM), pseudovirus neutralization came to 0.36 nM.

The values are drawn from patent US20220213176A1.
